Data taken from patent publication US20250276077A1, “EPHA2 ANTIBODIES” (Immunome, Inc., priority 2022, published 2025).

How the values were obtained:
Human EphA2 (human) [1] = target: Human EphA2 (human) (UniProt P29317); assay: IHC/IF on frozen human tumor tissue: PANC
Human EphA2 (human) [2] = target: Human EphA2 (human) (UniProt P29317); assay: IHC/IF on frozen human tumor tissue: HNC
Human EphA2 (human) [3] = target: Human EphA2 (human) (UniProt P29317); assay: IHC/IF on frozen human tumor tissue: CRC
Human EphA2 (human) [4] = target: Human EphA2 (human) (UniProt P29317); assay: IHC/IF on frozen human tumor tissue: UCEC-clear cell
Human EphA2 (human) [5] = target: Human EphA2 (human) (UniProt P29317); assay: IHC/IF on frozen human tumor tissue: MELA
Human EphA2 (human) [6] = target: Human EphA2 (human) (UniProt P29317); assay: IHC/IF on frozen human tumor tissue: ER+ BRC
Human EphA2 (human) [7] = target: Human EphA2 (human) (UniProt P29317); assay: IHC/IF on frozen human tumor tissue: GAC
Human EphA2 (human) [8] = target: Human EphA2 (human) (UniProt P29317); assay: IHC/IF on frozen human tumor tissue: OVA
Human EphA2 (human) [9] = target: Human EphA2 (human) (UniProt P29317); assay: IHC/IF on frozen human tumor tissue: TNBC
Human EphA2 (human) [10] = target: Human EphA2 (human) (UniProt P29317); assay: IHC/IF on frozen human tumor tissue: ANC
Human EphA2 (human) [11] = target: Human EphA2 (human) (UniProt P29317); assay: IHC/IF on frozen human tumor tissue: ESO
Human EphA2 (human) [12] = target: Human EphA2 (human) (UniProt P29317); assay: IHC/IF on frozen human tumor tissue: NSCLC-Adeno
Human EphA2 (human) [13] = target: Human EphA2 (human) (UniProt P29317); assay: IHC/IF on frozen human tumor tissue: STS
Human EphA2 (human) [14] = target: Human EphA2 (human) (UniProt P29317); assay: IHC/IF on frozen human tumor tissue: Her2+ BRC
Human EphA2 (human) [15] = target: Human EphA2 (human) (UniProt P29317); assay: IHC/IF on frozen human tumor tissue: PROC
Human EphA2 (human) [16] = target: Human EphA2 (human) (UniProt P29317); assay: IHC/IF on frozen human tumor tissue: UCEC-papillary
Human EphA2 (human) [17] = target: Human EphA2 (human) (UniProt P29317); assay: IHC/IF on frozen human tumor tissue: URO
Human EphA2 (human) [18] = target: Human EphA2 (human) (UniProt P29317); assay: IHC/IF on frozen human tumor tissue: RCC-papillary
Human EphA2 (human) [19] = target: Human EphA2 (human) (UniProt P29317); assay: IHC/IF on frozen human tumor tissue: RCC-clear cell
Human EphA2 (human) [20] = target: Human EphA2 (human) (UniProt P29317); assay: IHC/IF on frozen human tumor tissue: UCEC-endometrioid
Human EphA2 (human) [21] = target: Human EphA2 (human) (UniProt P29317); assay: IHC/IF on frozen human tumor tissue: NSCLC-SQ

| IHC score (Human EphA2 (human) [1]) | IHC score (Human EphA2 (human) [2]) | IHC score (Human EphA2 (human) [3]) | IHC score (Human EphA2 (human) [4]) | IHC score (Human EphA2 (human) [5]) | IHC score (Human EphA2 (human) [6]) | IHC score (Human EphA2 (human) [7]) | IHC score (Human EphA2 (human) [8]) | IHC score (Human EphA2 (human) [9]) | IHC score (Human EphA2 (human) [10]) | IHC score (Human EphA2 (human) [11]) | IHC score (Human EphA2 (human) [12]) | IHC score (Human EphA2 (human) [13]) | IHC score (Human EphA2 (human) [14]) | IHC score (Human EphA2 (human) [15]) | IHC score (Human EphA2 (human) [16]) | IHC score (Human EphA2 (human) [17]) | IHC score (Human EphA2 (human) [18]) | IHC score (Human EphA2 (human) [19]) | IHC score (Human EphA2 (human) [20]) | Substance | also measured |
| --- | --- | --- | --- | --- | --- | --- | --- | --- | --- | --- | --- | --- | --- | --- | --- | --- | --- | --- | --- | --- | --- |
| 1 | 1 | 1 | 2 | 2 | 1 | 1 | 1 | 1 | 1 | 1 | 2 | 1 | 1 | 1 | 1 | 1 | 1 | 1 | 1 | Ab73254 (extracellular) (antibody) | IHC score (Human EphA2 (human) [21]): 2 |
| 1 | 1 | 1 | 2 | 2 | 1 | 1 | 1 | 1 | 2 | 2 | 1 | 1 | 1 | 1 | 2 | 1 | 1 | 1 | 1 | 6997S (around Arg907) (antibody) | IHC score (Human EphA2 (human) [21]): 1 |
| 1 | 1 | 1 | 2 | 2 | 1 | 1 | 1 | 1 | 1 | 1 | 1 | 1 | 1 | 1 | 2 | 1 | 1 | 1 | 1 | LS-C100255-400 (AA 30-60) (antibody) | IHC score (Human EphA2 (human) [21]): 1 |
| 1 | 1 | 1 | 2 | 2 | 1 | 1 | 1 | 1 | 1 | 1 | 2 | 1 | 1 | 1 | 2 | 1 | 2 | 1 | 1 | LS-B1794-50 (AA 450-500) (antibody) | IHC score (Human EphA2 (human) [21]): 1 |
